Consider 1 molecule from patent US20090023900 (published 2009).

One assay deals with integrin alphaIIbbeta3 (human, UniProt P08514). The assay is described as follows: ELISA.
The next assay deals with T1, integrin alphaVbeta5 (human, UniProt P06756).
T1 chain 1: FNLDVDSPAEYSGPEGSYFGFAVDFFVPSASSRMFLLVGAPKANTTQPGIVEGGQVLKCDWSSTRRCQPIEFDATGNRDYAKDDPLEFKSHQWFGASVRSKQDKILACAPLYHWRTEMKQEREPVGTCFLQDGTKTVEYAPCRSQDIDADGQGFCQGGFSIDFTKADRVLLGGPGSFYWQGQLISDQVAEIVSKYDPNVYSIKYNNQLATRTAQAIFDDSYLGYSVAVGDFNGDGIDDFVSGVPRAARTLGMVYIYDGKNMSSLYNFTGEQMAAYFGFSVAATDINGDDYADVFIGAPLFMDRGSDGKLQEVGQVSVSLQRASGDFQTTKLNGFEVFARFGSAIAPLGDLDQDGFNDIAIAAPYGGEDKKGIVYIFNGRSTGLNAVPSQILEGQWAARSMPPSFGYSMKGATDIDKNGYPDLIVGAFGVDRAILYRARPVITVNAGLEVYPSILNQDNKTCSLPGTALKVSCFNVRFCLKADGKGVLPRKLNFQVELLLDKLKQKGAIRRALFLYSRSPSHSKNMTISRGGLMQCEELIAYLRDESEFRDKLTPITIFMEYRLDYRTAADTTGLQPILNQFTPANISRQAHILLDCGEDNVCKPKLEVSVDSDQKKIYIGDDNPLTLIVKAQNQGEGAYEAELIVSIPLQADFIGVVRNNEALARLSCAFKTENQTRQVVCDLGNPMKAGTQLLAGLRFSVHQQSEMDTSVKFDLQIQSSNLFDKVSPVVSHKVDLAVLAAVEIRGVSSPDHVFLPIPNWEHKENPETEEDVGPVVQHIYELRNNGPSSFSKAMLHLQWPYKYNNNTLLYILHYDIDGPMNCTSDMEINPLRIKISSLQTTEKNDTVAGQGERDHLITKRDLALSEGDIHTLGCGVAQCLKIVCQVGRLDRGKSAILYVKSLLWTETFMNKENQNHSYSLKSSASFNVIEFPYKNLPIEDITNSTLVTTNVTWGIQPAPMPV
T1 chain 2: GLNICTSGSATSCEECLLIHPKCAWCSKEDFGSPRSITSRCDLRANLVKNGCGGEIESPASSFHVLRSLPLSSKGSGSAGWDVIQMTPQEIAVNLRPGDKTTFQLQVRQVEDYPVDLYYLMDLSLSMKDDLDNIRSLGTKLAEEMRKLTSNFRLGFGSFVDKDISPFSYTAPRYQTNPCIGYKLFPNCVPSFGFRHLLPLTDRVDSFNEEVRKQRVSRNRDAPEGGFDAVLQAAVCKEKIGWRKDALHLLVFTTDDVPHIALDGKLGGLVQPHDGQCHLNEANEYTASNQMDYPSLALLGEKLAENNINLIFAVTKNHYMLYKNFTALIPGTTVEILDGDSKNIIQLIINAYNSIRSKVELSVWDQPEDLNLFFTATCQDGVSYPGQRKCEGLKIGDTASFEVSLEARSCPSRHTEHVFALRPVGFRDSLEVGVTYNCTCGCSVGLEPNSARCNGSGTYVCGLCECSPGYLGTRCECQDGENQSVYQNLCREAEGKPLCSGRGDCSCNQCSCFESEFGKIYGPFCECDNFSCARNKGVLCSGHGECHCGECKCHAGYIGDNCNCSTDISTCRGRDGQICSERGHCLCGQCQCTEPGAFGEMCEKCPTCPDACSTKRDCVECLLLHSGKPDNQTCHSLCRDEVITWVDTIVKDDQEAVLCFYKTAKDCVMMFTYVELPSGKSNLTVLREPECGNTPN
Description: ELISA.

B1: Vitaxin (antibody, V domains shown)
VH: QVQLVESGGGVVQPGRSLRLSCAASGFTFSSYDMSWVRQAPGKGLEWVAKVSSGGGSTYYLDTVQGRFTISRDNSKNTLYLQMNSLRAEDTAVYYCARHNYGSFAYWGQGTTVTVSS
VL: EIVLTQSPATLSLSPGERATLSCQASQSISNHLHWYQQRPGQAPRLLIKYRSQSISGIPARFSGSGSGTDFTLTISSLEPEDFAVYYCQQSGSWPHTFGGGTKVEIK
With B1, the binding result with integrin alphaIIbbeta3 and with integrin alphaVbeta5 was “no binding” throughout.
